# In article PMC7592630 (FASEB journal : official publication of the Federation of …, 2019):
# B1: C213Y Prph2 (natural protein, UniProt P15499 1-346, looked up)
# chain: MALLKVKFDQKKRVKLAQGLWLMNWLSVLAGIVLFSLGLFLKIELRKRSEVMNNSESHFVPNSLIGVGVLSCVFNSLAGKICYDALDPAKYAKWKPWLKPYLAVCIFFNVILFLVALCCFLLRGSLESTLAYGLKNGMKYYRDTDTPGRCFMKKTIDMLQIEFKCCGNNGFRDWFEIQWISNRYLDFSSKEVKDRIKSNVDGRYLVDGVPFSYCNPSSPRPCIQYQLTNNSAHYSYDHQTEELNLWLRGCRAALLNYYSSLMNSMGVVTLLVWLFEVSITAGLRYLHTALESVSNPEDPECESEGWLLEKSVPETWKAFLESFKKLGKSNQVEAEGADAGPAPEAG
# modifications: N-linked glycan (the paper shows that the mutant is glycosylated; Asn229 is the site in Prph2)
# Target: the molecule itself
# Experiment: sucrose gradient velocity sedimentation
protein,measurement,value
B1,stoichiometry N,4
